Numbering of substitutions follows the chain as printed.
T1: murine CD300C-Fc (mouse)
T1 construct: mouse IgG2a-Fc fusion (R&D Systems); the entry is the whole fusion chain; also called mCD300C; Mouse CD300C-Fc
T1 chain: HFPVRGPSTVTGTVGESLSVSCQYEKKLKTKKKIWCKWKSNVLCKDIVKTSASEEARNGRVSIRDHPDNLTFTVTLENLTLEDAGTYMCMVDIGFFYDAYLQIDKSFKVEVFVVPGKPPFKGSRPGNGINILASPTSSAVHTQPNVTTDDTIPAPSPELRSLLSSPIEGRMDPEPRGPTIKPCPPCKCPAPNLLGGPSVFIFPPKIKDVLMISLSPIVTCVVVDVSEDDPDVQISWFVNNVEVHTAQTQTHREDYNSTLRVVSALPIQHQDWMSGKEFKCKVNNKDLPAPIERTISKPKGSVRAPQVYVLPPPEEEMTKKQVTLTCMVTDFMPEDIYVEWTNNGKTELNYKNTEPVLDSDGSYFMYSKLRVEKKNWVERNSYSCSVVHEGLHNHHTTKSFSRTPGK

T2: murine CD300LB-Fc (mouse)
T2 construct: mouse IgG2a-Fc fusion (R&D Systems); the entry is the whole fusion chain; also called mCD300LB; Mouse CD300LB-Fc
T2 chain: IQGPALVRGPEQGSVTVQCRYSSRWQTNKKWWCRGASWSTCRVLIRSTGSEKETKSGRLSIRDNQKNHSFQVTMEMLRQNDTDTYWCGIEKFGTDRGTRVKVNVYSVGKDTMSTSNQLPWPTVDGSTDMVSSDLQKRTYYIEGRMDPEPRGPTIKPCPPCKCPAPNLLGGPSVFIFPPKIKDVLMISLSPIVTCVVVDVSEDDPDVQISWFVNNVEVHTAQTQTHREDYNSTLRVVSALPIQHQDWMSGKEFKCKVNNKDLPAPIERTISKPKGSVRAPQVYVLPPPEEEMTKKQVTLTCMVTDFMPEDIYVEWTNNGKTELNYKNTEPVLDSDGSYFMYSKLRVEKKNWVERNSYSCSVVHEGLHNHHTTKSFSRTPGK

T3: murine CD300E-Fc (mouse)
T3 construct: mouse IgG2a-Fc fusion (R&D Systems); the entry is the whole fusion chain; also called mCD300E; Mouse CD300E-Fc
T3 chain: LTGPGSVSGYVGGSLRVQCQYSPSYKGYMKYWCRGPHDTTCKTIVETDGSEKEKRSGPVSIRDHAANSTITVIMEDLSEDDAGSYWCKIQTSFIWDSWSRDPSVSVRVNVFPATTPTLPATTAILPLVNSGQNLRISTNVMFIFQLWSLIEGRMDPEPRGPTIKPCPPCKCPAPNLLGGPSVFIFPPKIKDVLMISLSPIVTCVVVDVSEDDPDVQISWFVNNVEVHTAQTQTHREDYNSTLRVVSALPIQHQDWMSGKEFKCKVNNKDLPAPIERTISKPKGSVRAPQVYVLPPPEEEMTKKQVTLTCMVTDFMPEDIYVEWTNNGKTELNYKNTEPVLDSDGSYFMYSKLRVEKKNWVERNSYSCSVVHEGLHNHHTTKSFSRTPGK

B1: anti-CD300LB antibody CD-14 (antibody, V domains shown)
VH: QIQLVQSGPELKKPGETVKISCKASGYTFTDYSLHWVKQTPEKNLKWMAWINTETGAPTYADDFKGRFAFSLETSSNTAYLLINNLKNEDTATYFCALTMVNYWGQGTTLTVSS
VL: DIVMTQSQKFMSTSVGDRVSVTCKASQNVGIRVAWHQQKPGQSPKTLIYSTSYRYSGVPDRFTGSGSGTEFILTISNVQSEDLAEYFCQQYNSYPYTFGGGTKLEIK
B2: anti-CD300LB antibody CD-18 (antibody, V domains shown)
VH: DVQLQESGPDLVKPSQSLSLTCTVTGYSITSGYSWHWIRQFPDNKLEWMGYILSRGDTNFNPSLKSRISITRSTSNNQFFLHFNSVTTEDTATYYCARDFFDYWGQGTTLTVSS
VL: DVLMTQTPLSLPVSLGDQASISCRSSQSIVHSNGNTYLEWYLQKPGQSPKLLIYKVSDRFSGVPDRFSGSGSGTDFTLKISRVEAEDLGVYFCFQGSHVPYTFGGGTKLEIK
B3: anti-CD300LB antibody CD-11 (antibody, V domains shown)
VH: QIQLVQSGPEVKKPGETVKISCKASGYTLTDYSMHWVMQTPGTGLKWMAWMNTETGEPTYADDFKGRFAFSLETSAGTAYLQIDNLKNEDTATYFCATYGKSYGMKYWGQGTSVTVSS
VL: DIVLTQSPPSLAVSLGQRATISCRATKSVSPYLHWYQQTPGQPPKLLIYLASNLDSGVPARFSGSGSGTDFTLNIHPVEEEDAATYYCQHNKELPPTFGGGTRLEIK
B4: anti-CD300LB antibody CD-10 (antibody, V domains shown)
VH: QVQLQQSGPELVRPGVSVKISCKGSGYTFTDYAMHWVKQSHVRSREWIGVIGTYNGHTNYNQKFKGKATMTVDKSSSTAYLELARLTSEDSAIYYCARSGSYYYSMDYWGQGTSVTVSS
VL: QIVLTQSPAIMSASPGEKVTMTCSASSSVNYMHWYQQKSGTSPKRWIYDTSKLSSGVPARFSGSGSGTSYSLTISTMEAEDAATYYCQQWSSNPPMTFGGGTKLEIK
B5: anti-CD300LB antibody CD-12 (antibody, V domains shown)
VH: QIQLVQSGPELKKPGETVKISCKASGYTFTDYSMHWVRQAPGKGLKWMAWINTETGEATHADDFKGRFDFSLDTSASTAYLQIKNLKNEDTGIYFCVCYGSSYGMDYWGQGTSVTVSS
VL: DIVLTQSPASLPVSLGQRATISCRASKSVRTSGASYMHWYQQKPGQPPKLLIYLASNLKSGVPTRFSGSGSGTDFTLNIHPVEEEDAATYYCQHNREVPPTFGGGTKLEIK
B6: anti-CD300LB antibody CD-16 (antibody, V domains shown)
VH: QIQLVQSGPELKKPGETVKISCKASGYTFTDYSMHWVKQAPGKGLKWMAWINTETGEPTYADDFRGRFAFSLETSGRTAYLEINNLRNEDTATYFCVTYGSSYGMAYWGQGTSVTVSS
VL: B5 VL with P12A, R30S, T31R, A34Y, M37L, N57K, K59E, T64A, E84A, V98I
B7: anti-CD300LB antibody CD-17 (antibody, V domains shown)
VH: QIQLVQSGPELKKPGETVKISCKASGYTLTDYSMHWVKQAPGKGLKWMGWINTETGEPRYGDDFKGRFAFSLETSASSAYLQINNLKNDDTATYFCATYGRSYGMDFWGQGTSVTVSS
VL: B5 VL with P12A, R30S, T31P, A34H, T64A, E85G, V98L, T106S
B8: anti-CD300LB antibody CD-13 (antibody, V domains shown)
VH: QIQLVQSGPELKKPGETVKISCKASGYTFTDYSMHWVKQAPGKGFKWMAWINTETGAPTHADDFRGRFAFSLETSASTAFLQISNLKTEDTATYFCVTFGKSYGMNYWGQGTSVTVSS
VL: B5 VL with P12S, R30G, T31S, A34S, M37L, K59E, T64A, D74E, R96A
B9: anti-CD300LB antibody CD-15 (antibody, V domains shown)
VH: QIQLVQSGPELKKPGETVKISCQVSGYTFTDYSMHWLKQAPGKGLKWMAWINTETGESTYTDEFKGRFVFSLETSVRTAYLKINNLKNEDTATYFCGTYGSSYGMAYWGQGTSVTVSS
VL: B5 VL with R30S, A34S, M37L, N57K, K59E, T64A, S67R

Each binder was assayed against T4, murine CD300A-Fc (mouse) (assay: SPR (Carterra LSA), antibody immobilised, Fc fusion at 300 or 600 nM).
T4 construct: hIgG1-Fc fusion; the entry is the whole fusion chain; also called mCD300A; Mouse CD300A-Fc
T4 sequence (chain, as listed by the source limits assumed): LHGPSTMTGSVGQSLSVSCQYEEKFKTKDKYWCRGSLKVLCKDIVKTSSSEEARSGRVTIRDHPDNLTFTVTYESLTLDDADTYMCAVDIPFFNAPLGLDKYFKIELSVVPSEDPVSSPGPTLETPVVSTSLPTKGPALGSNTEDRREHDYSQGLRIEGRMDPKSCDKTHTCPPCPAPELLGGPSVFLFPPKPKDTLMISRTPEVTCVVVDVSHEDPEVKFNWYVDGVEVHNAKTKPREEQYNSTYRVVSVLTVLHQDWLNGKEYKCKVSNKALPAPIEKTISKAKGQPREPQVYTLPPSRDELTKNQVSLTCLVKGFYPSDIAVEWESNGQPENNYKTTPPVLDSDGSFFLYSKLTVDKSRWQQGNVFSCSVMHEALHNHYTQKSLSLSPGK
Procedure: (§1) Binding of mouse anti-CD300LB IgG1 antibodies of the present disclosure to human and murine CD300 orthologs were evaluated by surface plasmon resonance (SPR) using a Carterra LSA instrument (Carterra, Salt Lake City, UT). […] A HC200M sensor chip (Carterra) was activated using the single channel flow cell with a 7-minute injection of a 1:1:1 mixture of 100 mM MES pH 5.5, 100 mM sulfo-NHS, 400 mM EDC (all reconstituted in MES pH 5.5; 100 μL of each mixed in vial immediately before running assay). After switching to the multi-channel array flow cell, the antibodies were injected over the activated chip in a 96-spot array for 10 minutes. The remaining unconjugated active groups on the chip were then blocked by injecting 1M Ethanolamine pH 8.5 (Carterra) for 7 minutes using the single channel flow cell. After priming with running buffer (HBS-TE, Carterra) with 0.5 mg/ml BSA (Sigma), the immobilized anti-CD300LB antibodies were tested for their ability to bind human and mouse recombinant CD300LB extracellular domains. Human CD300 family members and mouse CD300A were hIgG1-Fc fusions, while mouse CD300LB, mouse CD300C, mouse CD300D, and mouse CD300E were mouse IgG2a-Fc fusions (R&D Systems). Binding was assessed by injecting each analyte over the entire antibody array using the single channel flow cell. CD300 analytes were diluted to 300 nM or 600 nM in running buffer and injected in series without regeneration. Two or three buffer blanks were run between each mouse or human ortholog, respectively. Data were processed and analyzed using NextGenKIT high-throughput kinetics analysis software (Carterra).
(§2) Results of anti-CD300LB antibody binding to murine CD300 family members is provided below in Table 8.
B1 was tested, and the “SPR binding (control subtracted)” value was 2.7.
B2 was tested, and the “SPR binding (control subtracted)” value was 2.9.
B3 was tested, and the “SPR binding (control subtracted)” value was -2.1.
B4 was tested, and the “SPR binding (control subtracted)” value was -2.5.
In the case of B5, the “SPR binding (control subtracted)” value is reported as 4.2.
In the case of B6, the “SPR binding (control subtracted)” value is reported as -1.9.
In the case of B7, the “SPR binding (control subtracted)” value is reported as 2.9.
B8 was tested, and the “SPR binding (control subtracted)” value was 4.4.
For B9, the “SPR binding (control subtracted)” value was 7.1.

Target: T1, murine CD300C-Fc
Assay: as above
Procedure: as §1, §2
For B1, the “SPR binding (control subtracted)” value was 17.9.
With B2 the “SPR binding (control subtracted)” value was 1.5.
With B5 the “SPR binding (control subtracted)” value was 2.5.
For B6, the “SPR binding (control subtracted)” value was 34.5.
For B7, the “SPR binding (control subtracted)” value was 1.5.
For B8, the “SPR binding (control subtracted)” value was 43.6.
In the case of B9, the “SPR binding (control subtracted)” value is reported as 13.3.

Target: T2, murine CD300LB-Fc
Assay: as above
Procedure: as §1, §2
With B1 the “SPR binding (control subtracted)” value was 29.
With B2 the “SPR binding (control subtracted)” value was 328.
For B3, the “SPR binding (control subtracted)” value was 87.7.
B4 was tested, and the “SPR binding (control subtracted)” value was 370.
B5 was tested, and the “SPR binding (control subtracted)” value was 43.2.
For B6, the “SPR binding (control subtracted)” value was 310.
For B7, the “SPR binding (control subtracted)” value was 11.3.
In the case of B8, the “SPR binding (control subtracted)” value is reported as 82.4.
For B9, the “SPR binding (control subtracted)” value was 50.

Target: T3, murine CD300E-Fc
Assay: as above
Procedure: as §1, §2
For B1, the “SPR binding (control subtracted)” value was 3.6.
B2 was tested, and the “SPR binding (control subtracted)” value was -0.1.
For B3, the “SPR binding (control subtracted)” value was 7.4.
In the case of B4, the “SPR binding (control subtracted)” value is reported as 11.3.
B5 was tested, and the “SPR binding (control subtracted)” value was -0.6.
In the case of B6, the “SPR binding (control subtracted)” value is reported as 8.6.
With B7 the “SPR binding (control subtracted)” value was -0.7.
In the case of B8, the “SPR binding (control subtracted)” value is reported as 4.5.
In the case of B9, the “SPR binding (control subtracted)” value is reported as 0.8.

From patent US20240254227A1 (Alector, published 2024)
